One substance from paper PMC2718843 can be followed below.

A value given as a limit tells only on which side of the number the result lay.

Test [1] has as its target gp120 from CC101.19 cl.7 (HIV-1).
Test [2] addresses gp120 from D1/85.16 cl.23 (HIV-1).
The target in test [3] is gp120 from CC1/85 cl.6 (HIV-1).
Test [4] deals with gp120 from CC1/85 cl.7 (HIV-1).

In the case of sCD4 (domain or fragment), the IC50 for inhibition of replication of the clonal virus in PBMC (p24 antigen); inhibits gp120-CD4 binding is 0.1 µg/mL in test [1], 10 µg/mL in test [2], over 25 µg/mL in test [3] and 0.1 µg/mL in test [4].
